The target of assay [1] is Purified recombinant human apo-TDO (GST-TDO), Alexafluor 647-labelled (human, UniProt P48775 1-406, Alexafluor 647 on Cys groups). The assay can be described thus: fluorescence polarisation. In general terms: In fluorescence polarisation assays a small probe gives low polarisation when free and higher when bound to something large.
Assay [2] has as its target Purified recombinant human apo-IDO1 (His6-IDO1), Alexafluor 647-labelled (human, UniProt P14902 1-403, Alexafluor 647 on Cys groups). The experiment in a line: fluorescence polarisation.

The record followed here is PMC11389873 (Free radical biology & medicine, 2022).

Sequence of Purified recombinant human apo-TDO (GST-TDO), Alexafluor 647-labelled (P48775 whole entry): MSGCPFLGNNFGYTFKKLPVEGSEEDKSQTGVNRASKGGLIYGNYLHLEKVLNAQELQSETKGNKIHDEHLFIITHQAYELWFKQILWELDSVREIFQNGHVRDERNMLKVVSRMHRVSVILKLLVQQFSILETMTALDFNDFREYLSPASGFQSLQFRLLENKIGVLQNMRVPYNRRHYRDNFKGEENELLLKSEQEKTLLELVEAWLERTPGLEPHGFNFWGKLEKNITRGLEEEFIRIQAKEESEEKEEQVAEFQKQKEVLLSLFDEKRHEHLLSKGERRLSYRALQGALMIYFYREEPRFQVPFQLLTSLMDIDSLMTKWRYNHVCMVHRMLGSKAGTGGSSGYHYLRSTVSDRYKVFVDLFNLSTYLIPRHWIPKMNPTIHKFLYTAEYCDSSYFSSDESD
Sequence of Purified recombinant human apo-IDO1 (His6-IDO1), Alexafluor 647-labelled (P14902 whole entry): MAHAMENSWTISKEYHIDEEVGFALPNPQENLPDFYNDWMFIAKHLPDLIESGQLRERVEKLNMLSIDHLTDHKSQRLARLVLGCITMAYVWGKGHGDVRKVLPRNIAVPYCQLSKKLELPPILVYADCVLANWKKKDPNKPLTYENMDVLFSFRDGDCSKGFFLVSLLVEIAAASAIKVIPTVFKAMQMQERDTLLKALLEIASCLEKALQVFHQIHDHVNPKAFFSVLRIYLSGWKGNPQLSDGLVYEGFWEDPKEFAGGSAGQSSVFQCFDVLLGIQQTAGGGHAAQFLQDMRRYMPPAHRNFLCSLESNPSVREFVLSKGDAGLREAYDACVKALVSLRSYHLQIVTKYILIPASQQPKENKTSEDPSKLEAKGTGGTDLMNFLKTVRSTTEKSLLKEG

B1: Purified GST-tagged human GAPDH (natural protein)
chain: not shown
B1: the Kd (usually the free concentration of one partner at which half of the binding sites on the other are occupied at equilibrium, for simple one-to-one binding) in assay [1] was 1200 ± 400 nM; in assay [2] it was 1500 ± 1300 nM.
